# Experimental data from publication PMC7917804.
# Residue numbers refer to the chain shown, from its start. Numbers in names are those of the source.
# B1: FLAG-HA-SBP (FHS)-tagged TNRC6A-SD-WT, Q8NDV7-2 S1616A; S1691A (protein)
# chain: PLHQPAMKSFLDNVMPHTTPELQKGPSPINAFSNFPIGLNSNLNVNMDMNSIKEPQSRLRKWTTVDSISVNTSLDQNSSKHGAISSGFRLEESPFVPYDFMNSSTSPASPPGSIGDGWPRAKSPNGSSSVNWPPEFRPGEPWKGYPNIDPETDPYVTPGSVINNLSINTVREVDHLRDRNSGSSSSLNTTLPSTSAWSSIRASNYNVPLSSTAQSTSARNSDSKLTWSPGSVTNTSLAHELWKVPLPPKNITAPSRPPPGLTGQKPPLSTWDNSPLRIGGGWGNSDARYTPGSSWGESSSGRITNWLVLKNLTPQIDGSTLRTLCMQHGPLITFHLNLPHGNALVRYSSKEEVVKAQKSLHMCVLGNTTILAEFASEEEISRFFAQSQSLTPAPGWQSLGSSQSRLGSLDCSHSFSSRTDLNHWNGAGLSGTNCGDLHGTSLWGTPHYSTSLWGPPSSSDPRGISSPAPINAFLSVDHLGGGGESM
# B2: FLAG-HA-SBP (FHS)-tagged TNRC6A-SD-WT, Q8NDV7-2 S1332A; S1346A (protein)
# chain: B1 chain with S109A, S123A, A393S, A468S
# B3: FLAG-HA-SBP (FHS)-tagged full-length TNRC6A, wild type, Q8NDV7-2 S1616A; S1691A (protein)
# chain: MDADSASSSESERNITIMASGNTGGEKDGLRNSTGLGSQNKFVVGSSSNNVGHGSSTGPWGFSHGAIISTCQVSVDAPESKSESSNNRMNAWGTVSSSSNGGLNPSTLNSASNHGAWPVLENNGLALKGPVGSGSSGINIQCSTIGQMPNNQSINSKVSGGSTHGTWGSLQETCESEVSGTQKVSFSGQPQNITTEMTGPNNTTNFMTSSLPNSGSVQNNELPSSNTGAWRVSTMNHPQMQAPSGMNGTSLSHLSNGESKSGGSYGTTWGAYGSNYSGDKCSGPNGQANGDTVNATLMQPGVNGPMGTNFQVNTNKGGGVWESGAANSQSTSWGSGNGANSGGSRRGWGTPAQNTGTNLPSVEWNKLPSNQHSNDSANGNGKTFTNGWKSTEEEDQGSATSQTNEQSSVWAKTGGTVESDGSTESTGRLEEKGTGESQSRDRRKIDQHTLLQSIVNRTDLDPRVLSNSGWGQTPIKQNTAWDTETSPRGERKTDNGTEAWGSSATQTFNSGACIDKTSPNGNDTSSVSGWGDPKPALRWGDSKGSNCQGGWEDDSAATGMVKSNQWGNCKEEKAAWNDSQKNKQGWGDGQKSSQGWSVSASDNWGETSRNNHWGEANKKSSSGGSDSDRSVSGWNELGKTSSFTWGNNINPNNSSGWDESSKPTPSQGWGDPPKSNQSLGWGDSSKPVSSPDWNKQQDIVGSWGIPPATGKPPGTGWLGGPIPAPAKEEEPTGWEEPSPESIRRKMEIDDGTSAWGDPSKYNYKNVNMWNKNVPNGNSRSDQQAQVHQLLTPASAISNKEASSGSGWGEPWGEPSTPATTVDNGTSAWGKPIDSGPSWGEPIAAASSTSTWGSSSVGPQALSKSGPKSMQDGWCGDDMPLPGNRPTGWEEEEDVEIGMWNSNSSQELNSSLNWPPYTKKMSSKGLSGKKRRRERGMMKGGNKQEEAWINPFVKQFSNISFSRDSPEENVQSNKMDLSGGMLQDKRMEIDKHSLNIGDYNRTVGKGPGSRPQISKESSMERNPYFDKDGIVADESQNMQFMSSQSMKLPPSNSALPNQALGSIAGLGMQNLNSVRQNGNPSMFGVGNTAAQPRGMQQPPAQPLSSSQPNLRAQVPPPLLSPQVPVSLLKYAPNNGGLNPLFGPQQVAMLNQLSQLNQLSQISQLQRLLAQQQRAQSQRSVPSGNRPQQDQQGRPLSVQQQMMQQSRQLDPNLLVKQQTPPSQQQPLHQPAMKSFLDNVMPHTTPELQKGPSPINAFSNFPIGLNSNLNVNMDMNSIKEPQSRLRKWTTVDSISVNTSLDQNSSKHGAISSGFRLEESPFVPYDFMNSSTSPASPPGSIGDGWPRAKSPNGSSSVNWPPEFRPGEPWKGYPNIDPETDPYVTPGSVINNLSINTVREVDHLRDRNSGSSSSLNTTLPSTSAWSSIRASNYNVPLSSTAQSTSARNSDSKLTWSPGSVTNTSLAHELWKVPLPPKNITAPSRPPPGLTGQKPPLSTWDNSPLRIGGGWGNSDARYTPGSSWGESSSGRITNWLVLKNLTPQIDGSTLRTLCMQHGPLITFHLNLPHGNALVRYSSKEEVVKAQKSLHMCVLGNTTILAEFASEEEISRFFAQSQSLTPAPGWQSLGSSQSRLGSLDCSHSFSSRTDLNHWNGAGLSGTNCGDLHGTSLWGTPHYSTSLWGPPSSSDPRGISSPAPINAFLSVDHLGGGGESM
# B4: FLAG-HA-SBP (FHS)-tagged full-length TNRC6A, wild type, Q8NDV7-2 S1332A; S1346A (protein)
# chain: B3 chain with S1332A, S1346A, A1616S, A1691S
# Molecular target: poly(A)-binding protein (PABP), P11940
# Assay: co-immunoprecipitation with anti-FLAG antibody, Western blot quantified with ImageJ
# Details: chain shown with the change, HeLa cells, parent: est. 1.0, read off a plot
# Chain of poly(A)-binding protein (PABP), P11940 (P11940 whole entry): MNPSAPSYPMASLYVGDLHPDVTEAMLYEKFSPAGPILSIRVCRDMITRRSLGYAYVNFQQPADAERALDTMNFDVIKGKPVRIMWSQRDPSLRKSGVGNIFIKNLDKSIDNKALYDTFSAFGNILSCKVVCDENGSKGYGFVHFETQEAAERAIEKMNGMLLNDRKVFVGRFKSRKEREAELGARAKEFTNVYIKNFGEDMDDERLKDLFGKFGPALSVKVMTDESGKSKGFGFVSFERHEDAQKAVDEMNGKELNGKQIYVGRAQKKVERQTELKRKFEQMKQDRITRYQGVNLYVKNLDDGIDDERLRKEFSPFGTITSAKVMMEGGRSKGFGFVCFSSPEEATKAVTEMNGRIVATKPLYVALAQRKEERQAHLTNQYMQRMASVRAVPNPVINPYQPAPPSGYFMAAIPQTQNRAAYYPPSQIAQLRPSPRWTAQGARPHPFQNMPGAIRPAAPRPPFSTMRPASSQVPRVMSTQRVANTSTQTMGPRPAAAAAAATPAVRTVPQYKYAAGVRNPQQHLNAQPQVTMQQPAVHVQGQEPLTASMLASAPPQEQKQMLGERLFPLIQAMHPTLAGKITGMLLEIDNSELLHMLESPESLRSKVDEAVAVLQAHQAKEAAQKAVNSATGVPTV
Binder,response (three independent experiments),response (two independent experiments)
B1,0.81,
B2,1.4,
B3,,0.89
B4,,1.7
